For assay [1], the target named is T1, recombinant human NGF protein (human, UniProt P01138 122-241). Put plainly: cell-based or functional assay.
In assay [2] the target is T1, recombinant human NGF protein. Nature of the assay: ELISA, human NGF coated. As to the method: The affinity and specificity of humanized antibody were investigated by using human NGF as an antigen (Beijing Yiqiao Shenzhou Technology Co., Ltd., 11050-HNAC). NGF was diluted with […] coating solution (PBS), and each well of 96-well microtiter plate was coated with 50 ng, after washing and blocking, and then added with serially diluted antibodies, and incubated at room temperature for 1 hour. After washing three times, HRP-conjugated donkey anti-human IgG antibody (Biolegend) was added and reacted at room temperature for 1 hour. After washing three times, tetramethylbenzidine (TMB, Biolegend) was added for color development. 1M HC1 was […] used to terminate the color development, and the absorbance values were read at 450 nm with a microplate reader.
Background: ELISA stands for enzyme-linked immunosorbent assay.

Assay [3] addresses T2, human BDNF (human, UniProt P23560 129-247).
T2 construct: Bought protein; also called Brain-Derived Neurotrophic Factor
T2 sequence (looked up): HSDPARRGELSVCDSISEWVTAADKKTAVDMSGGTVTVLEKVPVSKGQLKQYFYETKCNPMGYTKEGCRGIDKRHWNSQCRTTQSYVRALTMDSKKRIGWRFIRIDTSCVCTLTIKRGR
Put plainly: ELISA, plate coated with human BDNF (50 ng per well), OD450.

In assay [4] the target is T3, human NT-3 (human, UniProt P20783 139-257).
T3 construct: Bought protein; also called Neurotrophic factor-3
T3 sequence (looked up): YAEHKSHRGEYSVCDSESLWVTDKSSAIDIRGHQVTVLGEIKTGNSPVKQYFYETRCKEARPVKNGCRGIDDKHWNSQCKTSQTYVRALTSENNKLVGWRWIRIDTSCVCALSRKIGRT
Put plainly: ELISA, plate coated with human NT-3 (50 ng per well), OD450. As to the method:
Each well of a 96-well microtiter plate was coated with 50 ng of human NGF (Beijing Yiqiao Shenzhou Technology Co., Ltd., 11050-HNAC), human BDNF (Beijing Yiqiao Shenzhou Technology Co., Ltd., 50240-MNAS), human NT-3 (Beijing Yiqiao Shenzhou Technology Co., Ltd., 10286-HNAE), or human NT-4 (Alomone, N-270). The bindings of the murine anti-NGF antibodies to human NGF and three homo-family proteins were detected according to the method described in Example 2.
The binding of the humanized anti-NGF antibody to human NGF and to three homo-family proteins was detected according to the ELISA method described in Example 6A.

Assay [5] has as its target T4, human NT-4 (human, UniProt P34130 81-210).
T4 construct: Bought protein; also called Neurotrophic factor-4
T4 sequence (looked up): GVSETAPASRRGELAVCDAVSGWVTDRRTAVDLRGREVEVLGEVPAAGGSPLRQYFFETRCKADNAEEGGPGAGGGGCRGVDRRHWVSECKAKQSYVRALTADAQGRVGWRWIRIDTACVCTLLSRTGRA
Put plainly: ELISA, plate coated with human NT-4 (50 ng per well), OD450.

Assay [6] addresses T2, human BDNF. Nature of the assay: ELISA, plate coated with human BDNF (50 ng per well), OD450. This is another data set of the same source.
The target in assay [7] is T3, human NT-3. Nature of the assay: ELISA, plate coated with human NT-3 (50 ng per well), OD450. This is another data set of the same source.
Assay [8] concerns the target T4, human NT-4. Nature of the assay: ELISA, plate coated with human NT-4 (50 ng per well), OD450. The source holds these as a separate data set.

Substitutions are numbered along the chain they refer to. Where two headings read alike, the source gives them in different places.

T1 sequence (P01138 122-241 limits assumed): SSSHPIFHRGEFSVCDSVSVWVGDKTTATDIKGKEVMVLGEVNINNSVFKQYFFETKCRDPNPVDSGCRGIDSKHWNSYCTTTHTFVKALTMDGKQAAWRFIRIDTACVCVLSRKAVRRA

B1: human-mouse chimeric antibody 138E12-Chi (antibody, V domains shown)
VH: QVQLKESGPGLVAPSQSLSITCTVSGFSLTGYGVNWVRQPPGKGLEWLGMIWFDGSTDYNSALKSRLSISKDNSKSQVFLKMNSLQTDDTARYYCAREGYYYGTTYYFDYWGQGTTLTVSS
VL: DIQMTQTTSSLSASLGDRVTISCRASQDISNYLNWYQQKPDGTVKLLIYYTSRLHSGVPSRFSGSGSGTDYSLTISNLEQEDIATYFCQQGNTLPRTFGGGTKLEIK
notes: the constant regions are not specified
A word on the EC50: it is the midpoint of the concentration-response curve. Regarding B1, the “IC50, inhibition of NGF-induced proliferation of TF-1 cell” value (“IC50, inhibition” for short) in assay [1] came out at 0.074 nM. Further, the concentration giving a half-maximal response (EC50) in assay [2] stood at 0.0454 nM. Further, the binding result with human BDNF [3], with human NT-3 [4] and with human NT-4 [5] was “no binding (tested: 66.67 nM)” each time.

B2: humanized anti-NGF antibody 138E12-02 (antibody, V domains shown)
VH: QVQLQESGPGLVKPSETLSLTCTVSGFSLTGYGVNWIRQPPGKGLEWLGMIWFDGSTDYNSALKSRLTISKDNSKSQVSLKLSSVTAADTAVYYCAREGYYYGTTYYFDYWGQGTTVTVSS
VL: DIQMTQSPSSLSASVGDRVTITCRASQDISNYLNWYQQKPGKAPKLLIYYTSRLHSGVPSRFSGSGSGTDYTLTISSLQPEDFATYFCQQGNTLPRTFGGGTKVEIK
notes: Humanized antibody expressed in CHO cells
Take B2: in assay [1], the “IC50, inhibition” value was 0.064 nM. For the same molecule, the EC50 in assay [2] was determined as 0.042 nM. Besides, the binding result with human BDNF [3], in the assay with human NT-3 [4] and with human NT-4 [5] was “no binding (tested: 66.67 nM)” each time.

B3: humanized anti-NGF antibody 138E12-09 (antibody, V domains shown)
VH: B2 VH with L48I, N60Q, L67V
VL: B2 VL
B3: in assay [1], the “IC50, inhibition” value was 0.035 nM. Besides, the EC50 in assay [2] is 0.027 nM. For the same molecule, the binding result with human BDNF [3], with human NT-3 [4] and in the assay with human NT-4 [5] was “no binding (tested: 66.67 nM)” in each case.

B4: humanized anti-NGF antibody 138E12-10 (antibody, V domains shown)
VH: B2 VH with L48I, D54E, N60Q, L67V
VL: B2 VL
On to B4, for which the “IC50, inhibition” value in assay [1] is 0.031 nM. Further, the EC50 in assay [2] stood at 0.0184 nM. The binding result with human BDNF [3], with human NT-3 [4] and with human NT-4 [5] was “no binding (tested: 66.67 nM)” each time.

B5: humanized anti-NGF antibody 138E12-01 (antibody, V domains shown)
VH: B2 VH with L48I, L67V
VL: B2 VL
notes: as for B2
Take B5: the “IC50, inhibition” value in assay [1] worked out at 0.03 nM. For the same molecule, in assay [2], the EC50 stood at 0.0403 nM. Further, the binding result with human BDNF [3], with human NT-3 [4] and with human NT-4 [5] was “no binding (tested: 66.67 nM)” each time.

B6: humanized anti-NGF antibody 138E12-11 (antibody, V domains shown)
VH: B2 VH with D54E, N60Q
VL: B2 VL
With B6, the “IC50, inhibition” value in assay [1] turned out to be 0.062 nM. Also, the concentration giving a half-maximal response (EC50) in assay [2] is 0.0324 nM. In addition, the binding result with human BDNF [3], with human NT-3 [4] and with human NT-4 [5] was “no binding (tested: 66.67 nM)” in each case.

B7: humanized anti-NGF antibody 138E12-03 (antibody, V domains shown)
VH: B2 VH with D54E
VL: B2 VL
For the molecule B7, the “IC50, inhibition” value in assay [1] came to 0.13 nM. Also, the EC50 in assay [2] was determined as 0.0392 nM. Further, the binding result in the assay with human BDNF [3], with human NT-3 [4] and with human NT-4 [5] was “no binding (tested: 66.67 nM)” in each case.

B8: humanized anti-NGF antibody 138E12-07 (antibody, V domains shown)
VH: B2 VH with L48I, D54E, N60Q, L67V, K71V, N73T, S76N, V78F
VL: B2 VL
Turning to B8, the “IC50, inhibition” value in assay [1] worked out at 0.214 nM. Besides, in assay [2], the EC50 was 0.034 nM. The binding result in the assay with human BDNF [3], with human NT-3 [4] and in the assay with human NT-4 [5] was “no binding (tested: 66.67 nM)” each time.

B9: humanized anti-NGF antibody 138E12-05 (antibody, V domains shown)
VH: B2 VH with N60Q
VL: B2 VL
As to B9, the “IC50, inhibition” value in assay [1] worked out at 0.136 nM. The EC50 in assay [2] was 0.0634 nM. Further, the binding result in the assay with human BDNF [3], in the assay with human NT-3 [4] and in the assay with human NT-4 [5] was “no binding (tested: 66.67 nM)” each time.

B10: humanized anti-NGF antibody 138E12-08 (antibody, V domains shown)
VH: B2 VH with L48I, D54E, L67V
VL: B2 VL
B10: the “IC50, inhibition” value in assay [1] was 0.067 nM. Besides, in assay [2], the EC50 was determined as 0.0253 nM. Besides, the binding result in the assay with human BDNF [3], with human NT-3 [4] and in the assay with human NT-4 [5] was “no binding (tested: 66.67 nM)” throughout.

B11: humanized anti-NGF antibody 138E12-04 (antibody, V domains shown)
VH: B2 VH with G55A
VL: B2 VL
In the case of B11, the “IC50, inhibition” value in assay [1] came out at 0.112 nM. Further, in assay [2], the EC50 was determined as 0.057 nM. For the same molecule, the binding result with human BDNF [3], with human NT-3 [4] and with human NT-4 [5] was “no binding (tested: 66.67 nM)” throughout.

B12: humanized anti-NGF antibody 138E12-06 (antibody, V domains shown)
VH: B2 VH with S61T
VL: B2 VL
Regarding B12, in assay [1], the “IC50, inhibition” value turned out to be 0.125 nM. For the same molecule, in assay [2], the EC50 is 0.05 nM. Also, the binding result with human BDNF [3], with human NT-3 [4] and with human NT-4 [5] was “no binding (tested: 66.67 nM)” each time.

B13: humanized anti-NGF antibody 43E5-02 (antibody, V domains shown)
VH: QVQLVQSGAEVKKPGASVKVSCKASGYTFTDYEMHWVRQAPGQGLEWIGAIDPETGGTAYNQKFKGRATLTADKSISTAYMELSRLRSDDTAVYYCRRGANLNHYGNDEGSYWGQGTLVTVSS
VL: DVVMTQSPLSLPVTLGQPASISCKSSQSLLHSVGKTYLNWLQQRPGQSPRRLIYLVSKLDSGVPDRFSGSGSGTDFTLKISRVEAEDVGVYFCWQGTHLPQTFGGGTKVEIK
notes: as for B2
With B13, the “IC50, inhibition” value in assay [1] came out at 0.534 nM. In addition, the EC50 in assay [2] amounted to 0.222 nM. The binding result in the assay with human BDNF [6], in the assay with human NT-3 [7] and with human NT-4 [8] was “no binding (tested: 66.67 nM)” in each case.

B14: humanized anti-NGF antibody 43E5-01 (antibody, V domains shown)
VH: B13 VH with I48M, A68V, L70M
VL: B13 VL
notes: as for B2
For the molecule B14, the “IC50, inhibition” value in assay [1] is 0.582 nM. Further, the concentration giving a half-maximal response (EC50) in assay [2] was 0.229 nM. Besides, the binding result with human BDNF [6], in the assay with human NT-3 [7] and with human NT-4 [8] was “no binding (tested: 66.67 nM)” throughout.
